Measured values published in patent US20240307509A1, “PLACENTAL ALKALINE PHOSPHATASE FOR STARTING EARLY TREATMENT OF CANCER PATIENTS EXHIBITING NO DETECTABLE LOSS OF BODY AND MUSCLE WEIGHT AS YET TO PREVENT OR REDUCE THE LOSS OF MUSCLE PROTEINS” (MNPHARM SBC, priority 2021, published 2024).
Several values for one entry are separate records, joined by “and”; a condition that tells them apart may be missing. Identical values can stand only once.

Key:
[1] = tested on: T47D human estrogen receptor positive breast carcinoma; experiment: Tumor growth and survival of Cyp treated mice bearing T47D breast carcinoma; type: in vivo
Procedure: T47D estrogen receptor positive human breast cancer cells were from American Tissue Culture Collection (10801 University Boulevard, Manassas, Virginia, 20110-2209, United States).
First generation hybrid BDF1 (C57BL female x DBA/2 male) 6 weeks old, weighing 22-23 grams, specified pathogen free (SPF) hygienic category colonies were used. The animals were kept in macrolon cage at 22-24 0 C° (45-55% humidity), with a lightning regimen of 12/12 h light/dark. The animals had free access to tap water and were fed with a sterilized standard diet (Charles River VRF1, autoclavable, Germany) ad libitum.
T47D mammary tumor pieces (maintained in mouse tail, containing about 1.5×10^6 tumor cells) were implanted subcutaneously into the intrascapular region to develop the tumors. After 15 days, when the tumor-bearing mice were first treated, the sizes of the tumors were in the 0.27-0.34 cm^3 range. PLAP and Cyp were dissolved in 0.9% sodium chloride and applied subcutaneously (PLAP) or intraperitoneally (Cyp) in 50 μl volume. In the first group (n=7), animals received no treatment. In the second group (n=7), mice were administered 120-mg/kg of Cyp on day 15 followed by eleven consecutive treatments on every second day (days 17, 19, 21, 23, 25, 27, 29, 31, 35, 37, and 39) with the same dose. In the third group (n=7), treatment with Cyp (on the same days as in group 2) was accompanied by administration of 7.5 mg per kg of PLAP on days 15, 20, 25, 30, 35, and 40. Tumor volume was measured on days 15, 18, 21, 24, 27, 31, 35, 40, and 46, and body weight was measured on day 46. Then the animals were kept without additional treatment to determine survival rates.

[2] = tested on: T47D human breast cancer tumor; experiment: Skeletal muscle proteins in the Cyp treated human T47D tumor model; type: in vivo, mice; settings: gastrocnemius, day 28; PLAP 7.5 mg per kg subcutaneously days 14, 17, 20, 23, 26; Cyp intraperitoneally days 15-27 every second day
Procedure: PLAP and Cyp were dissolved in 0.9% sodium chloride and applied subcutaneously (PLAP) or intraperitoneally (Cyp) in […] volume. […] In the fourth and fifth groups mice also received Cyp on days 15, 17, 19, 21, 23, 25, and 27. On day 28, body weights were measured first followed by determining the tumor volumes. After the mice were put to death under anesthesia, the gastrocnemius muscles were excised to determine total proteins by using a Sigma kit.

L6 myoblasts [3] = experiment: Proliferation of L6 myoblasts with or without IGF-1 (MTT assay); type: cell-based; settings: serum-free medium, 72 hours; IGF-1 50 nM, rPLAP 150 nM, PLAP 150 nM
Procedure: L6 myoblasts were grown in 96-well plates in 10% FBS containing DMEM up to 30% confluency. Then the medium was changed to serum-free medium, and after 2 hours, cells were treated with IGF-1 (50 nM), or rPLAP (150 nM), or PLAP (150 nM) in the absence or presence of IGF-1 for 72 hours, followed by the MTT assay (absorbance; A540) as described by others assay [Carmichael, J, De Graff, W.G., Gazdar, A.F., Minna, J.D. and Mitchell, J.B. Evaluation of tetrazolium-based semiautomated colorimetric assay: Assessment of chemosensitivity testing. Cancer Res. 47, 936-942, 1987].

L6 myoblasts [4] = experiment: Proliferation of L6 myoblasts in the presence of myostatin (MTT assay); type: cell-based; settings: 96 hours
Procedure: In this experiment, L6 myoblasts were seeded in 10% serum containing Dulbecco's modified Eagles (DMEM) medium in 96-well plates (n=8 for each treatment). After 24 hours at 30% confluence, the medium was changed to 2% serum-containing medium (0 time) and then treated with 0.25 μg/ml or 1 ug/ml myostatin (MSTN-from the R&D Systems-catalog no. 788-GB-010) in the absence or presence of 25 nM, 100 nM, or 200 nM PLAP for 96 hours. The relative number of viable cells (A540) was determined by the MTT assay [Carmichael, J, De Graff, W.G., Gazdar, A.F., Minna, J.D. and Mitchell, J.B. Evaluation of tetrazolium-based semiautomated colorimetric assay: Assessment of chemosensitivity testing. Cancer Res. 47, 936-942, 1987]. The value measured at 0 time is subtracted from the 96-hour values.

[5] = ATP as substrate of alkaline phosphatases (unpublished data); type: biochemical; settings: compared to IALP or TNAP
From the text: This invention can also use an alkaline phosphatase (AP) which is a hybrid derivative of two APs. For example, in such a hybrid one critical segment may originate from PLAP accounting for the heat stability, and another segment may originate from a different AP accounting for a higher catalytic phosphatase activity or another useful property. As an example, envisioned in the disclosure, such hybrid may contain up to roughly 50% of the sequence of PLAP providing stability, and up to roughly 50% of the sequence of another human AP providing the catalytic alkaline phosphatase activity. The rationale for using such hybrid is that of the APs, PLAP has by far the greatest stability in the circulation, while other APs may have greater catalytic activities towards some specific substrates.

[6] = Spectrophotometric assay of PLAP enzyme activity; type: biochemical; settings: 10 mM 4-nitrophenylphosphate, 22° C., pH 9.8; 1 U = 1 umole substrate hydrolyzed/min
Procedure: PLAP as determined by sodium dodecyl sulfate-polyacrylamide gel electrophoresis (SDS-PAGE). The enzyme activity of PLAP was assayed using a spectroscopic method to monitor the hydrolysis of 4-nitrophenylphosphate (as an increase in absorbance at 410 nm) at room temperature (22° C.) as described in [Chang, G.-G., Shiao, M.-S., Lec, K.-R. and Wu, J.-J., Modification of human placental alkaline phosphatase by periodate-oxidized 1,N6-ethenoadenosine monophosphate. Biochem. J., 272, 683-690, 1990]. Activity analysis of 5-10-μg purified enzyme was performed in 1 mI. incubation volume containing 50 mM Na2CO3/NaHCO3, 10 mM MgCl2, 10 mM 4-nitrophenylphosphate at pII 9.8. The extinction coefficient of 4-nitrophenol was taken as 1.62×10^4 M^−1 cm^−1. An enzyme activity of I U (unit) is defined as 1 umole substrate hydrolyzed/min at 22° C. at pH 9.8. The pure PLAP was further identified by sequence analysis performed by the Mayo Clinic Protein Core Facility (Rochester, MN, US). The specific activity of purified PLAP was 685 Units per mg protein.

[7] = purified PLAP, literature (Clubb et al. 1965); cited from earlier work
[8] = tested on: PC-3 human prostate adenocarcinoma tumor; experiment: Subcutaneously administered PLAP in the cachectic PC-3 mouse tumor model; type: in vivo, mice; settings: day 28
From the text: PC-3 human prostate cancer cell-derived aggressive tumors are cachectic depending on the mouse strain used for tumor development. In the following experiment, a cachectic mouse model of human prostate tumor was used.
PC-3 human prostate adenocarcinoma tissue pieces (0.1 cm^3 volume) were implanted subcutaneously into the intrascapular region of 6 weeks old female mice [homozygous line of C.B .-171cr scid/scid] to develop the tumors. The mice were kept at specified pathogen free (SPF) hygienic levels. In the first group of mice (7 mice), no tumors were developed (tumor free control). In the second group of mice (7 mice), tumors were developed but remained untreated. In the third group of mice (7 mice), on days 8, 11, 14, 17, 21 and 25 after transplantation of PC-3 tumors, mice were administered 4 mg/kg of PLAP subcutaneously. The weight and total protein content of m. gastrocnemius (using a protein determination kit from Sigma), tumor weight, lean body weight (total weight minus tumor weight), and the weight of abdominal fat tissue were determined on day 28 (after tumor transplantation).

[9] = Cyp 120 mg/kg intraperitoneally, PLAP 7.5 mg/kg subcutaneously
[10] = numbers in parentheses, n=7 per group
[11] = m. gastrocnemius, PLAP 4 mg/kg subcutaneously on days 8, 11, 14, 17, 21, 25

O.O=P1(N(CCCl)CCCl)NCCCO1 (centres unmarked) [Cyp, 2-[Bis (2-chloroethyl)amino] tetrahydro-2H-1,3,2-oxazaphosphorine 2-oxide monohydrate]
Tumor volume Day 18 ([1]; Cyp 120 mg/kg intraperitoneally every second day from day 15, PLAP 7.5 mg/kg subcutaneously every 5 days): 0.33 ± 0.11 cm^3 | Tumor volume Day 21 [1, 9]: 0.56 ± 0.10 cm^3 | Tumor volume Day 24 [1, 9]: 0.72 ± 0.20 cm^3 | Tumor volume Day 27 [1, 9]: 0.91 ± 0.22 cm^3 | Tumor volume Day 31 [1, 9]: 1.06 ± 0.17 cm^3 | Tumor volume Day 35 [1, 9]: 1.22 ± 0.32 cm^3 | Tumor volume Day 40 [1, 9]: 1.68 ± 0.29 cm^3 | Tumor volume Day 46 [1, 9]: 1.82 ± 0.24 cm^3 | Survival Mean ([1]; T47D tumor bearing animals, n=7, monohydrate): 49 days and 49.3 days | body weight less compared to the untreated group ([1]; body weight measured on day 46): 1.4% | Tumor volume Day 15 ([1]; day of first treatment, Cyp 120 mg/kg intraperitoneally, PLAP 7.5 mg/kg subcutaneously): 0.30 ± 0.11 cm^3 | number of mice alive Day 35 [1, 10]: 7 | number of mice alive Day 40 [1, 10]: 7 | number of mice alive Day 46 [1, 10]: 5 | Survival % ([1]; relative to untreated (None = 100)): 129% | Total Muscle Protein [2]: 11.31 ± 0.43 mg per 100 mg of muscle weight

IGF-1: insulin like growth factor-1 [reference compound]
L6 myoblast proliferation (A540) (minus 0-time value) (L6 myoblasts [3]): 0.280 ± 0.030 A540

Myostatin: myostatin (MSTN) from R&D Systems, catalog no. 788-GB-010 [reference compound]
L6 myoblast proliferation minus 0-time value (A540) (L6 myoblasts [4]; Myostatin 0.25 μg/ml, no PLAP, 2% serum): 0.214 ± 0.032 A540 | L6 myoblast proliferation minus 0-time value (A540) (L6 myoblasts [4]; Myostatin 1.0 μg/ml, no PLAP, 2% serum): 0.175 ± 0.030 A540

B1: PLAP: highly purified native placental alkaline phosphatase derived from human placenta via conventional purification methods (protein, UniProt P05187 23-506, looked up)
Alkaline phosphatase, …: IIPVEEENPDFWNREAAEALGAAKKLQPAQTAAKNLIIFLGDGMGVSTVTAARILKGQKKDKLGPEIPLAMDRFPYVALSKTYNVDKHVPDSGATATAYLCGVKGNFQTIGLSAAARFNQCNTTRGNEVISVMNRAKKAGKSVGVVTTTRVQHASPAGTYAHTVNRNWYSDADVPASARQEGCQDIATQLISNMDIDVILGGGRKYMFRMGTPDPEYPDDYSQGGTRLDGKNLVQEWLAKRQGARYVWNRTELMQASLDPSVTHLMGLFEPGDMKYEIHRDSTLDPSLMEMTEAALRLLSRNPRGFFLFVEGGRIDHGHHESRAYRALTETIMFDDAIERAGQLTSEEDTLSLVTADHSHVFSFGGYPLRGSSIFGLAPGKARDRKAYTVLLYGNGPGYVLKDGARPDVTESESGSPEYRQQSAVPLDEETHAGEDVAVFARGPQAHLVHGVQEQTFIAHVMAFAACLEPYTACDLAPPAGTTD
ATP as substrate [5]: weak substrate | L6 myoblast proliferation minus 0-time value (A540) (L6 myoblasts [4]; PLAP 25 nM, Myostatin 0.25 μg/ml): 0.325 ± 0.038 A540 | L6 myoblast proliferation minus 0-time value (A540) (L6 myoblasts [4]; PLAP 25 nM, Myostatin 1.0 μg/ml): 0.300 ± 0.023 A540 | L6 myoblast proliferation minus 0-time value (A540) (L6 myoblasts [4]; PLAP 25 nM, No Myostatin): 0.410 ± 0.025 A540 | L6 myoblast proliferation minus 0-time value (A540) (L6 myoblasts [4]; PLAP 100 nM, Myostatin 0.25 μg/ml): 0.430 ± 0.024 A540 | L6 myoblast proliferation minus 0-time value (A540) (L6 myoblasts [4]; PLAP 100 nM, Myostatin 1.0 μg/ml): 0.402 ± 0.027 A540 | L6 myoblast proliferation minus 0-time value (A540) (L6 myoblasts [4]; PLAP 100 nM, No Myostatin): 0.541 ± 0.022 A540 | L6 myoblast proliferation minus 0-time value (A540) (L6 myoblasts [4]; PLAP 200 nM, Myostatin 0.25 μg/ml): 0.542 ± 0.069 A540 | L6 myoblast proliferation minus 0-time value (A540) (L6 myoblasts [4]; PLAP 200 nM, Myostatin 1.0 μg/ml): 0.500 ± 0.033 A540 | L6 myoblast proliferation minus 0-time value (A540) (L6 myoblasts [4]; PLAP 200 nM, No Myostatin): 0.707 ± 0.032 A540 | L6 myoblast proliferation (A540) (minus 0-time value) (L6 myoblasts [3]): 0.267 ± 0.025 A540 | specific activity [6]: 685 Units per mg protein | half-life time in human circulation [7]: about 7 days | Total Muscle Protein [2]: 13.20 ± 0.38 mg per 100 mg of muscle weight | inhibition of tumor growth ([8]; PLAP 4 mg/kg subcutaneously): 32% | loss of lean body weight ([8]; PLAP treated tumor (41% in untreated)): 18% | loss of abdominal fat tissue ([8]; PLAP treated tumor (46% in untreated)): 12% | Tumor Weight ([8]; PLAP 4 mg/kg subcutaneously): 2.9 ± 0.4 g | Muscle Mass [8, 11]: 93 ± 9 mg | Muscle Protein [8, 11]: 13.3 ± 1.3 mg/100 mg of muscle weight | Lean Body Weight ([8]; total weight minus tumor weight, PLAP 4 mg/kg subcutaneously): 25.9 ± 2.8 g | Abdominal Fat Tissue ([8]; weight, PLAP 4 mg/kg subcutaneously): 0.66 ± 0.07 g
